Experiments:
[1] = tested on: T1, NE peptide substrate with acetylated N-terminal CKKK-PEG4 linker and C-terminal heptafluorobutylamine reporter (peptide-PFC)
T1 sequence: CKKKXXXX

[2] = tested on: T2, NE peptide substrate with acetylated N-terminal CKKK-PEG4 linker and C-terminal pentafluoropropylamine reporter (peptide-PFC)
T2 sequence: CKKKXXXX

Substance | PFC release from the peptide substrate (real-time vapor analysis mass spectrometry) [1] | PFC release from the peptide substrate (real-time vapor analysis mass spectrometry) [2]
MMP9 | minimal cleavage by other proteases ... (MMP9 and MMP13 | minimal cleavage by other proteases ... (MMP9 and MMP13
MMP13 | minimal cleavage by other proteases ... (MMP9 and MMP13 | minimal cleavage by other proteases ... (MMP9 and MMP13
